The source of these data is patent US20060234941A1 (US Dept. of Health and Human Services, published 2006).

In assay [1] the target is T1, HLA-A2 on the surface of T2 cells (human).
T1 construct: Stabilised HLA-A2 detected with pan HLA class I monoclonal antibody W6/32; also called MHC molecules
The assay can be described thus: T2 HLA-A2 stabilisation assay, flow cytometry with W6/32. The procedure:
To test the binding affinity of the predicted human peptides for HLA-A2, three exemplary peptides, designated KDR505 (SEQ ID NO:6), KDR775 (SEQ ID NO:7) and KDR1093 (SEQ ID NO:5) were synthesized and evaluated in a T2 binding assay as described by Cerundolo et al., Nature 342:449-452, 1990. In brief, T2 cells were cultured in RPMI1640 with 10% FBS, and grown in 5% CO₂ at 37° C. Cells (1×10⁵) in a volume of 100 μl of RPMI 1640 (serum free) were aliquoted into 96-well, U-bottomed plates and incubated with peptide at a final concentration of 0.1-100 μM plus 5 nM β₂ microglobulin (Cymbus Biotechnology Ltd., Chandlers Ford, Hampshire, United Kingdom) for 18 h at 37° C. in 5% CO₂. The level of stabilized HLA-A2 on the surface of the T2 cells was detected using the pan HLA class I monoclonal antibody W6/32 (European Collection of Animal Cell Cultures (ECACC), Porton Down, Salisbury) that recognizes stabilized HLA-A2 complexes. Samples are fixed in 1% paraformaldehyde in PBS prior to analysis and analyzed on a Becton Dickinson FACSCAN®.
A general note: A flow cytometer gives signals particle by particle.

Assay [2] deals with T2, H-2Db MHC class I molecule on RMA-S cells (mouse, UniProt P01887 21-119; P01899 25-362).
T2 construct: MHC class I stabilised on RMA-S (H-2b) cells by added peptide; detected with anti-H-2Db monoclonal antibody clone 28-14-8; also called H-2Db molecules
T2 sequence (MHC heavy, looked up): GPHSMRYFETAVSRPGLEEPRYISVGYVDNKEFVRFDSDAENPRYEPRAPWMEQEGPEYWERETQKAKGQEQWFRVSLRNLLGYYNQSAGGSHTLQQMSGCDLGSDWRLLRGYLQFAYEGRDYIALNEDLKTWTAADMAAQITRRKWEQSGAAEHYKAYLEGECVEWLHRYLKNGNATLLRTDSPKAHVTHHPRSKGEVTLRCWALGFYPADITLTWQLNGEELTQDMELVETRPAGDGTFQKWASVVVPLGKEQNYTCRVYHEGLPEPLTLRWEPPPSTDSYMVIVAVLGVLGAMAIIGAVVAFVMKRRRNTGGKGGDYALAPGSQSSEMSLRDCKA
T2 sequence (b2m, looked up): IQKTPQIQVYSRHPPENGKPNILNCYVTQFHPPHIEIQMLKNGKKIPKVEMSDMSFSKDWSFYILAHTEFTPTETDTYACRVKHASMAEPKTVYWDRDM
The assay is described as follows: RMA-S MHC class I stabilisation assay, flow cytometry with anti-H-2Db antibody. The procedure: To test the binding affinity of these peptides to H-2Db, an RMA-S binding experiment was performed, and the FI value in the assay was measured. […] The RMA-Binding assays were performed as previously described (Lyman et al., J. Virol. 76:3125-3134, 2002). Briefly, synthetic peptides were dissolved in dimethyl sulfoxide before dilution. For MHC-binding assays, RMA-S cells were loaded with various peptides for 16 to 18 h at 37° C. Levels of surface class I molecules were assessed by flow cytometric analysis (FACScan; Becton Dickinson) using mouse monoclonal antibodies specific for H-2Db (Southern Biotech, clone No. 28-14-8). FI=Fluorescence after peptides stimulation/ Fluorescence without peptide-1.

Take AMFFWLLLV [KDR775 (human VEGFR-2/KDR peptide AMFFWLLLV)]: the binding result in assay [1] is given as “binds”. Take VLLWEIFSL [KDR1093 (human VEGFR-2/KDR peptide VLLWEIFSL)]: the binding result in assay [1] is “binds”.

B1: Human P53 264-272 peptide (peptide, UniProt P04637 264-272, looked up)
peptide: LLGRNSFEV
notes: range 264-272; also called wild type P53 264-272
For B1, in assay [2], the binding result was “no binding (tested: 200 µM)” and the “peptide concentration at FI=0.5” value was over 200 µM.

B2: KDR3 (murine VEGFR-2/KDR peptide FSNSTNDILI) (peptide)
peptide: FSNSTNDILI
notes: Synthetic peptide (Sigma); also called VEGFR-2/KDR3
On to B2, for which the “peptide concentration at FI=0.5” value in assay [2] was about 3 µM. As to RAHYNIVTF (peptide, UniProt P03129 49-57, looked up, range 49-57; also called HPV E7 49-57) [Human Papilloma Virus (HPV)16E7 49-57 peptide], the “peptide concentration at FI=0.5” value in assay [2] was about 12.5 µM.

B3: KDR2 (murine VEGFR-2/KDR peptide VILTNPISM) (peptide)
peptide: VILTNPISM
notes: Synthetic peptide (Sigma); also called VEGFR-2/KDR2
In the case of B3, the “peptide concentration at FI=0.5” value in assay [2] is about 24 µM. With ALIEGKNKT [KDR505 (human VEGFR-2/KDR peptide ALIEGKNKT)], the binding result in assay [1] was “binds”.
